In assay [1] the target is E. coli expressed recombinant PKM2 (rPKM2) (human) (UniProt P14618). Description: SEC.
The target of assay [2] is Pyruvate kinase isoform M2 (PKM2), endogenous (human (endogenous in SW620 and SW480)) (UniProt P14618). The assay is described as follows: SEC. For orientation: SEC sorts molecules by how far they enter the pores of the column.

Sequence of E. coli expressed recombinant PKM2 (rPKM2), P14618 1-531 (enzyme; other documents disagree on this pair) (P14618 whole entry): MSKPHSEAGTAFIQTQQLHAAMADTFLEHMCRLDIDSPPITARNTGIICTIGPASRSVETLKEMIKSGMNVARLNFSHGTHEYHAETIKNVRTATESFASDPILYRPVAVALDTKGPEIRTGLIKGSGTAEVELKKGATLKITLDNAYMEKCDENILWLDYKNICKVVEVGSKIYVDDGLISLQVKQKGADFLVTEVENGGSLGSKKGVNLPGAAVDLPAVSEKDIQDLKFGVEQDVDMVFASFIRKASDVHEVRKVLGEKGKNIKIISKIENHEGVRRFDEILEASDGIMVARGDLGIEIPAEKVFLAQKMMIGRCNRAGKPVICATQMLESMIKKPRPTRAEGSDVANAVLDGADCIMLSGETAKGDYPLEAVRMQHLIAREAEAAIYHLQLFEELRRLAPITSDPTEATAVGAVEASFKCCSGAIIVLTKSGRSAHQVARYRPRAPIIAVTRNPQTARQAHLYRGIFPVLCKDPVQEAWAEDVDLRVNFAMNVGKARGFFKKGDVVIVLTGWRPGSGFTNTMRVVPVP
Sequence of Pyruvate kinase isoform M2 (PKM2), endogenous, P14618 1-531 (enzyme; other documents disagree on this pair) (P14618 whole entry, canonical isoform): as the sequence (P14618 whole entry) above

The term stoichiometry N denotes the number of molecules, sites or subunits per partner or assembly. Take “E. coli expressed recombinant PKM2 (rPKM2), P14618 1-531 (enzyme; other documents disagree on this pair)”: the stoichiometry N in assay [1] is 2. Substance “Pyruvate kinase isoform M2 (PKM2), endogenous, P14618 1-531 (enzyme; other documents disagree on this pair)” yielded a stoichiometry N in assay [2] of 2.

The values are drawn from publication PMC3299833.
